Data: patent US20190249188A1 (WHITEHEAD INSTITUTE FOR BIOMEDICAL RESEARCH, published 2019)

Target: the molecule itself
Test: X-ray crystallography, BAR/acetyl-CoA and BAR/CoA/phosphinothricin complexes
Method: BAR protein was incubated with 1 mM acetyl-CoA for >2 hour prior to setting crystal trays. Crystals of BAR were obtained after 3 days at 20° C. in hanging drops containing 1 μL of protein solution (7.5 mg/ml) and 1 μL of reservoir solution (0.18 M calcium acetate, 0.1 M Tris-HCl pH 7, 18% (w/v) PEG 3000, 0.2% N-nonyl β-D-glucopyranoside, 1 mM acetyl-CoA). Several crystals were soaked in reservoir solution supplemented with 30 mM L-phosphinothricin for 30-60 min before freezing. Crystals were frozen in reservoir solution supplemented with 15% ethylene glycol. […] Co-crystallization screens and soaking experiments were performed using aminoadipate and tryptophan at final concentrations between 5-30 mM. However, we could not identify electron density supporting the presence of these substrates within the resolved crystal structures.
X-ray diffraction data were collected on the 24-ID-C beam line of the Structural Biology Center at the Advanced Photon Source (Argonne National Laboratory) equipped with a Pixel Array Detector (Pilatus-6MF). […] Initial phases were determined by molecular replacement using Phaser under Phenix (Adams, P. D. et al., Acta Crystallographica. Section D, Biological Crystallo. 66, 213-221, (2010)). […]

B1: Wildtype bialaphos resistance (BAR) protein from Streptomyces hygroscopicus (enzyme)
chain: MSPERRPADIRRATEADMPAVCTIVNHYIETSTVNFRTEPQEPQEWTDDLVRLRERYPWLVAEVDGEVAGIAYAGPWKARNAYDWTAESTVYVSPRHQRTGLGSTLYTHLLKSLEAQGFKSVVAVIGLPNDPSVRMHEALGYAPRGMLRAAGFKHGNWHDVGFWQLDFSLPVPPRPVLPVTEI
notes: the entries describe its self-association into a homodimer in the crystal; Expressed in E. coli from pProEX Hta as 6xHis-BAR; Crystallised with acetyl-CoA, or with CoA and phosphinothricin; also called WT BAR; wild-type BAR
binding result: binds
